Changes are numbered by the printed parent chain.

In general, koff refers to the rate constant with which the complex falls apart. Read a low koff as slow dissociation. As a reminder, the kon is a measure of how fast the partners come together. Higher therefore signals fast association.

The target in test [1] is T1, Cyno TROP2 (Macaca fascicularis, UniProt A0A2K5UE71).
T1 construct: Construct used in the measurement is not described; also called cynomolgus TROP2
T1 sequence (antigen): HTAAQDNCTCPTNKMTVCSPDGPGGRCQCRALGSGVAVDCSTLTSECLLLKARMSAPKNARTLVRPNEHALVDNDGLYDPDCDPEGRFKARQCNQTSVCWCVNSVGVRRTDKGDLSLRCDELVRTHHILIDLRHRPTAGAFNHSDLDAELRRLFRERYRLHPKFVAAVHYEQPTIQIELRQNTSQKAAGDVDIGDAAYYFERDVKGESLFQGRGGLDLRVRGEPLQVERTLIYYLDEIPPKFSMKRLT
Kind of test: not stated; bivalent format.

Test [2] has as its target T2, TROP2 (UniProt P09758 27-274, limits assumed).
T2 construct: also called tumor-associated calcium signal transducer 2; TACSTD2
T2 sequence (looked up): T1 sequence (antigen) with V36M, E46K, N67S, V204I
Kind of test: not stated; bivalent format.

B1: 1F11-1A3.315[Trop2]_H1.1_L1 (antibody, V domains shown)
VH: QVQLVQSGAEVKKPGASVKVSCKASGYTLTRYYMHWVRQAPGQGLEWMGIINPGGGSTGYAQKFQGRVTMTRDTSTSTVYMELSSLRSEDTAVYYCARDDVVAADVFDYWGQGTLVTVSS
VL: not shown
In test [1], B1 returned a Kd of 2.7 nM, a koff of 0.00073 s⁻¹ and a kon of 270000 M⁻¹ s⁻¹. Also, in test [2], the Kd was found to be 2 nM, the koff is 0.00048 s⁻¹ and the kon was 240000 M⁻¹ s⁻¹.

B2: 1F11-1A3.315[Trop2]_H1.16_L1 (antibody, V domains shown)
VH: B1 VH with N52E, V102T
VL: not shown
Turning to B2, in test [1], the Kd stood at 1.5 nM, the koff turned out to be 0.00047 s⁻¹ and the kon amounted to 310000 M⁻¹ s⁻¹. In test [2], this molecule displayed a Kd of 1.1 nM, a koff of 0.00029 s⁻¹ and a kon of 270000 M⁻¹ s⁻¹.

B3: 1F11-1A3.315[Trop2]_H1.2_L1 (antibody, V domains shown)
VH: B1 VH with L29F, N52E
VL: not shown
In test [1], B3 showed a Kd of 2.5 nM, a koff of 0.00067 s⁻¹ and a kon of 270000 M⁻¹ s⁻¹. In addition, in test [2], the Kd was found to be 2 nM, the koff was 0.00047 s⁻¹ and the kon was found to be 250000 M⁻¹ s⁻¹.

B4: 1F11-1A3.315[Trop2]_H1.12_L1 (antibody, V domains shown)
VH: B1 VH with L29F, N52E, A103K
VL: not shown
As for B4, in test [1], the Kd is 1.1 nM, the koff was 0.00038 s⁻¹ and the kon came to 360000 M⁻¹ s⁻¹. In test [2], the Kd came out at 1.3 nM, the koff came to 0.00033 s⁻¹ and the kon was found to be 270000 M⁻¹ s⁻¹.

B5: 1F11-1A3.315[Trop2]_H1.21_L1 (antibody, V domains shown)
VH: B1 VH with N52E, G59S, A103K
VL: not shown
In test [1], B5 had a Kd of 0.81 nM, a koff of 0.00031 s⁻¹ and a kon of 390000 M⁻¹ s⁻¹. For the same molecule, in test [2], the Kd stood at 1.5 nM, the koff turned out to be 0.00032 s⁻¹ and the kon is 210000 M⁻¹ s⁻¹.

B6: 1F11-1A3.315[Trop2]_H1.15_L1 (antibody, V domains shown)
VH: B1 VH with L29F, V102T, A103K
VL: not shown
In test [1], B6 came in with a Kd of 5.1 nM, a koff of 0.0016 s⁻¹ and a kon of 310000 M⁻¹ s⁻¹. In test [2], this molecule showed a Kd of 4.1 nM, a koff of 0.00091 s⁻¹ and a kon of 230000 M⁻¹ s⁻¹.

B7: 1F11-1A3.315[Trop2]_H1.11_L1 (antibody, V domains shown)
VH: B1 VH with L29F, N52E, V102T
VL: not shown
B7: in test [1], the Kd was found to be 2.6 nM, the koff stood at 0.00079 s⁻¹ and the kon was found to be 300000 M⁻¹ s⁻¹. Further, in test [2], the Kd came out at 1.5 nM, the koff came to 0.00051 s⁻¹ and the kon is 340000 M⁻¹ s⁻¹.

B8: 1F11-1A3.315[Trop2]_H1.8_L1 (antibody, V domains shown)
VH: B1 VH with V102T
VL: not shown
In test [1], B8 came in with a Kd of 3.1 nM, a koff of 0.00077 s⁻¹ and a kon of 250000 M⁻¹ s⁻¹. For the same molecule, in test [2], the Kd is 2.7 nM, the koff came to 0.0006 s⁻¹ and the kon is 230000 M⁻¹ s⁻¹.

B9: 1F11-1A3.315[Trop2]_H1.22_L1 (antibody, V domains shown)
VH: B1 VH with N52E, G59S, V102T, A103K
VL: not shown
In the case of B9, in test [1], the Kd was found to be 0.7 nM, the koff was determined as 0.00028 s⁻¹ and the kon stood at 400000 M⁻¹ s⁻¹. In test [2], the Kd was found to be 0.55 nM, the koff was found to be 0.00021 s⁻¹ and the kon turned out to be 380000 M⁻¹ s⁻¹.

B10: 1F11-1A3.315[Trop2]_H1.5_L1 (antibody, V domains shown)
VH: B1 VH with L29F, A103K
VL: not shown
Regarding B10, in test [1], the Kd was 4.5 nM, the koff was 0.0014 s⁻¹ and the kon was found to be 320000 M⁻¹ s⁻¹. Moreover, in test [2], the Kd was 3.4 nM, the koff stood at 0.00081 s⁻¹ and the kon stood at 240000 M⁻¹ s⁻¹.

B11: 1F11-1A3.315[Trop2]_H1.9_L1 (antibody, V domains shown)
VH: B1 VH with A103K
VL: not shown
In test [1], B11 had a Kd of 1.4 nM, a koff of 0.00046 s⁻¹ and a kon of 320000 M⁻¹ s⁻¹. Besides, in test [2], the Kd worked out at 1.7 nM, the koff was 0.0004 s⁻¹ and the kon is 240000 M⁻¹ s⁻¹.

B12: 1F11-1A3.315[Trop2]_H1.17_L1 (antibody, V domains shown)
VH: B1 VH with N52E, A103K
VL: not shown
In test [1], B12 displayed a Kd of 0.81 nM, a koff of 0.00028 s⁻¹ and a kon of 350000 M⁻¹ s⁻¹. In addition, in test [2], the Kd amounted to 0.62 nM, the koff turned out to be 0.00017 s⁻¹ and the kon was 270000 M⁻¹ s⁻¹.

B13: 1F11-1A3.315[Trop2]_H1.3_L1 (antibody, V domains shown)
VH: B1 VH with L29F, G59T
VL: not shown
As for B13, in test [1], the Kd came to 8.6 nM, the koff was found to be 0.002 s⁻¹ and the kon came to 230000 M⁻¹ s⁻¹. In test [2], this molecule showed a Kd of 6 nM, a koff of 0.0012 s⁻¹ and a kon of 200000 M⁻¹ s⁻¹.

B14: 1F11-1A3.315[Trop2]_H1.4_L1 (antibody, V domains shown)
VH: B1 VH with L29F, V102T
VL: not shown
In test [1], B14 came in with a Kd of 9.4 nM, a koff of 0.0021 s⁻¹ and a kon of 220000 M⁻¹ s⁻¹. In test [2], this molecule yielded a Kd of 6.7 nM, a koff of 0.0011 s⁻¹ and a kon of 180000 M⁻¹ s⁻¹.

B15: 1F11-1A3.315[Trop2]_H1.18_L1 (antibody, V domains shown)
VH: B1 VH with N52E, G59T, V102T
VL: not shown
In test [1], B15 gave a Kd of 0.93 nM, a dissociation rate constant (koff) of 0.00034 s⁻¹ and a kon of 370000 M⁻¹ s⁻¹. Moreover, in test [2], the Kd amounted to 0.66 nM, the koff worked out at 0.0002 s⁻¹ and the kon worked out at 320000 M⁻¹ s⁻¹.

B16: 1F11-1A3.315[Trop2]_H1.20_L1 (antibody, V domains shown)
VH: B1 VH with N52E, G59S, V102T
VL: not shown
On to B16, for which, in test [1], the Kd worked out at 1.7 nM, the koff came to 0.00059 s⁻¹ and the kon amounted to 340000 M⁻¹ s⁻¹. Moreover, in test [2], the Kd was 1.1 nM, the koff was 0.00035 s⁻¹ and the kon was determined as 320000 M⁻¹ s⁻¹.

B17: 1F11-1A3.315[Trop2]_H1.13_L1 (antibody, V domains shown)
VH: B1 VH with L29F, G59T, V102T
VL: not shown
For the molecule B17, in test [1], the Kd is 2.8 nM, the koff was 0.00084 s⁻¹ and the kon was found to be 300000 M⁻¹ s⁻¹. Further, in test [2], the Kd stood at 1.7 nM, the koff amounted to 0.00051 s⁻¹ and the kon stood at 330000 M⁻¹ s⁻¹.

B18: 1F11-1A3.315[Trop2]_H1.6_L1 (antibody, V domains shown)
VH: B1 VH with N52E
VL: not shown
With B18, in test [1], the Kd came to 1.5 nM, the off-rate (koff) came out at 0.00042 s⁻¹ and the kon is 290000 M⁻¹ s⁻¹. For the same molecule, in test [2], the Kd is 0.77 nM, the koff was determined as 0.00025 s⁻¹ and the kon was 320000 M⁻¹ s⁻¹.

B19: 1F11-1A3.315[Trop2]_H1.14_L1 (antibody, V domains shown)
VH: B1 VH with L29F, G59T, A103K
VL: not shown
In test [1], B19 yielded a Kd of 3.7 nM, a koff of 0.0013 s⁻¹ and a kon of 360000 M⁻¹ s⁻¹. In test [2], the Kd is 2.6 nM, the koff stood at 0.00077 s⁻¹ and the kon came to 290000 M⁻¹ s⁻¹.

B20: 1F11-1A3.315[Trop2]_H1.7_L1 (antibody, V domains shown)
VH: B1 VH with G59T
VL: not shown
In test [1], B20 returned a Kd of 2.8 nM, a koff of 0.00077 s⁻¹ and a kon of 280000 M⁻¹ s⁻¹. In addition, in test [2], the Kd stood at 1.9 nM, the koff turned out to be 0.00053 s⁻¹ and the on-rate (kon) came out at 280000 M⁻¹ s⁻¹.

The record behind these values is patent US20250084179A1 (Xencor, published 2025).
